{"source": "patent US20130224313A1", "about": "(CENTRO DE INGENIERIA GENETICA Y BIOTECNOLOGIA, published 2013)", "key": {"[1]": {"target": "T1, COMMD1 protein, amino acids 6-190 (two-hybrid clone L2-21) (human, UniProt Q8N668 6-190)", "T1 construct": "range 6-190; Prey clone found in the two-hybrid screen; also called MURR1; not shown: fusion partner of the human liver cDNA library (prey) vector in strain Y187; not described", "T1 sequence (Q8N668 6-190)": "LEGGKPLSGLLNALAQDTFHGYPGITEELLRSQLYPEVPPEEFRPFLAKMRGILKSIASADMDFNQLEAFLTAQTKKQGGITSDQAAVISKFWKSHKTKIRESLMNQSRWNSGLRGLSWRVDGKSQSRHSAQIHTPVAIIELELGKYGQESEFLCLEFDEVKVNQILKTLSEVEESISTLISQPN", "assay": "yeast two-hybrid screen of a human liver cDNA library, verified by mating", "procedure": "(§1) FIG. 1. The figure illustrates the physical interaction between the L2 peptide and COMMD1. This was carried out by the technique of two hybrids in yeast. As negative controls were used the mating of the yeast strain AH109 transformed with the empty vector (pGBKT7) and the fragments of COMMD1 transformed with the Y187 strain. For the identification of the interaction, mating of the strain AH109 transformed with vector carrying the sequence of L2 and each COMMD1 fragment transformed into strain Y187 was carried out. As a positive control, the PCL1 mating bearing the GAL4 transcription factor was used. As it can be noted, the interaction occurs with the plasmids carrying the complete sequence of the COMMD1 gene and the construction containing the amino acids 110-190 of the COMMD1 protein.\n(§2) corresponding to the L2 peptide sequence: […] For cloning these sequences in the pGBKT7 NcoI-BamHI vector, sequences complementary to these sites were added at the ends of the oligonucleotides. The pGBKL2-1 recombinant plasmid, which carries the L2 peptide sequence was verified by restriction analysis and sequencing. The plasmid was transformed into the AH109 yeast strain by the lithium acetate method and grown in SD-Trp medium. It was verified that it could not be self-activated when grown on SD-Trp-His plates. […]"}, "[2]": {"target": "T2, COMMD1 fragment, amino acids 110-190 (clone pGBKL2 (110-190)) (human, UniProt Q8N668 110-190)", "T2 construct": "range 110-190; also called COMM domain; not shown: two-hybrid vector fusion partner; not described", "T2 sequence (Q8N668 110-190)": "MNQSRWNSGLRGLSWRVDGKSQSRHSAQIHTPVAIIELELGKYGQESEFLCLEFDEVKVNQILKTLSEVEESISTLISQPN", "assay": "yeast two-hybrid with deletion clones", "procedure": "as §1, §2"}}, "data": [{"binder": "HARIKPTFRRLKWKYKGKFW (Two-hybrid bait; not shown: fusion partner encoded by the pGBKT7 two-hybrid bait vector)", "note": "[L2 peptide expressed from plasmid pGBKL2-1 (pGBKT7 vector) in yeast strain AH109]", "values": [{"measurement": "binding result", "setting": "[1]", "value": "binds"}, {"measurement": "binding result", "setting": "[2]", "value": "binds"}]}]}
